Measured values: publication PMC10653854

Key:
[1] = target: Zika virus (ZIKV) soluble E ectodomain (sE) (Zika virus); assay: SEC-MALS
[2] = target: Zika virus (ZIKV) soluble E ectodomain (sE) (Zika virus); assay: SEC-MALS; pH 8.0; isolated proteins sampled individually; Superdex 200

Work on “Zika virus (ZIKV) soluble E ectodomain (sE) (domain or fragment)” yielded a stoichiometry N [1] of 2 and a stoichiometry N [2] of 2.
